Reference: paper PMC7204071, “The model cyanobacteria Anabaena sp. PCC 7120 possess an intact but partially degenerated gene cluster encoding gas vesicles” (BMC Microbiology, 2020)

Substrate: Nc1ncnc2c1ncn2[C@@H]1O[C@H](COP(=O)(O)OP(=O)(O)OP(=O)(O)O)[C@@H](O)[C@H]1O
Assay: ATP/NADH coupled assay (pyruvate kinase / lactate dehydrogenase), A340, Hanes-Woolf plot
Assay type: biochemical, Nostoc sp. PCC 7120 = FACHB-418
Conditions: 50 mM Tris-HCl pH 8.0, 20 mM KCl, 5 mM MgCl2, 25 °C, 50 μg GvpN in assay, methods state NADH (40 to 200 μM), not ATP, was varied

B1: GvpN (Nostoc sp. PCC 7120 = FACHB-418) (protein)
chain: MTLTANNKKRAVLRVRPGQFVVTPAIEQVAIRALRYLTSGFAIHLRGPAGTGKTTLAMHLANCLDRPIMLIFGDDEFKSSDLIGSESGYTHKKLLDNYIHSVLKVEDEFKQNWVDSRLTLACREGFTLVYDEFNRSRPEVNNVLLSALEEKILTLPPSSNQPEYLHVNPQFRAIFTSNPEEYCGVHSTQDALMDRLVTINMPEPDELTQTEILAQKTALNRADALLIVRLVKAFRSRTGGEKTSGLRSCLMIAKVCAEHNILVSPQSSDFREICADVLFNRTNWSASEAATIFLELLNHLDLQQIEEFKNSIIPEDTDAIAEGGFPTIIDSHFGTLDSEVLEQPGVEDSIPFEQEIYLYLQQYKSAALALVQQEFELSRTVATNALNSLEQKGLVSKNNHVYTIEEPNQS
notes: recombinant, C-terminal 6xHis tag (modified pET-29a, same manner as GvpF), E. coli BL21(DE3), Ni-NTA and Superdex 200; N-terminal AAA domain
- Km: 3.9 ± 1.5 µM
- kcat: 35 ± 2 s⁻¹
